Test results taken from patent US20240118272A1.

Key:
[1] = molecular target: CD9(ECD)-ALP conjugate (human; bovine); test: HI-1000 capture immunoassay; secondary calibrator C3, 14.32 U/L; run 2
[2] = molecular target: CD9(FL)-ALP conjugate (human; bovine); test: HI-1000 capture immunoassay; calibrator C4, 21.93 mU/L; run 3
[3] = molecular target: CD9(FL)-ALP conjugate (human; bovine); test: HI-1000 capture immunoassay; calibrator C5, 30 ng/mL; run 2
[4] = molecular target: CD9(FL)-ALP conjugate (human; bovine); test: HI-1000 capture immunoassay; calibrator C4, 15 ng/mL; run 1
[5] = molecular target: CD9(ECD)-ALP conjugate (human; bovine); test: HI-1000 capture immunoassay; secondary calibrator C4, 129.62 U/L; run 1
[6] = molecular target: CD9(FL)-ALP conjugate (human; bovine); test: HI-1000 capture immunoassay; calibrator C2, 5.48 mU/L; run 2
[7] = molecular target: CD9(ECD)-ALP conjugate (human; bovine); test: HI-1000 capture immunoassay; primary calibrator C5, 159.87 ng/mL; mean of 3
[8] = molecular target: CD9(FL)-ALP conjugate (human; bovine); test: HI-1000 capture immunoassay; calibrator C5, 43.86 mU/L; mean of 3
[9] = molecular target: CD9(ECD)-ALP conjugate (human; bovine); test: HI-1000 capture immunoassay; secondary calibrator C1, 1.02 U/L; run 3
[10] = molecular target: CD9(ECD)-ALP conjugate (human; bovine); test: HI-1000 capture immunoassay; secondary calibrator C3; mean of 3 aliquots
[11] = molecular target: CD9(FL)-ALP conjugate (human; bovine); test: HI-1000 capture immunoassay; calibrator C2, 5.48 mU/L; run 1
[12] = molecular target: CD9(ECD)-ALP conjugate (human; bovine); test: HI-1000 capture immunoassay; thawed aliquot 2 of secondary calibrator C2
[13] = molecular target: CD9(ECD)-ALP conjugate (human; bovine); test: HI-1000 capture immunoassay; thawed aliquot 3 of secondary calibrator C4
[14] = molecular target: CD9(FL)-ALP conjugate (human; bovine); test: HI-1000 capture immunoassay; calibrator C1, 1.0 ng/mL; run 3
[15] = molecular target: CD9(ECD)-ALP conjugate (human; bovine); test: HI-1000 capture immunoassay; secondary calibrator C3, 14.32 U/L; run 3
[16] = molecular target: CD9(ECD)-ALP conjugate (human; bovine); test: HI-1000 capture immunoassay; secondary calibrator C5, 387.01 U/L; mean of 3
[17] = molecular target: CD9(ECD)-ALP conjugate (human; bovine); test: HI-1000 capture immunoassay; thawed aliquot 3 of secondary calibrator C3
[18] = molecular target: CD9(FL)-ALP conjugate (human; bovine); test: HI-1000 capture immunoassay; calibrator C3, 10.96 mU/L; run 1
[19] = molecular target: CD9(ECD)-ALP conjugate (human; bovine); test: HI-1000 capture immunoassay; primary calibrator C1, 1.52 ng/mL; mean of 3
[20] = molecular target: CD9(ECD)-ALP conjugate (human; bovine); test: HI-1000 capture immunoassay; secondary calibrator C5, 387.01 U/L; run 2

CD9(FL)-ALP conjugate (human; bovine), sequence (chain, as listed by the source, chain 1 of 2): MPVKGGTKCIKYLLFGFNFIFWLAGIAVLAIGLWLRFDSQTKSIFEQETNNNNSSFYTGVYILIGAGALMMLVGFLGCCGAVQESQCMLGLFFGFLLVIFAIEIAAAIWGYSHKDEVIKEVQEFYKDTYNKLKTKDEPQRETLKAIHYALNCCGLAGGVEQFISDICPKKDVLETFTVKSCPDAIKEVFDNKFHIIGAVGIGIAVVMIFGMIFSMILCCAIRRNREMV
CD9(FL)-ALP conjugate (human; bovine), sequence (P19111 20-506, chain 2 of 2): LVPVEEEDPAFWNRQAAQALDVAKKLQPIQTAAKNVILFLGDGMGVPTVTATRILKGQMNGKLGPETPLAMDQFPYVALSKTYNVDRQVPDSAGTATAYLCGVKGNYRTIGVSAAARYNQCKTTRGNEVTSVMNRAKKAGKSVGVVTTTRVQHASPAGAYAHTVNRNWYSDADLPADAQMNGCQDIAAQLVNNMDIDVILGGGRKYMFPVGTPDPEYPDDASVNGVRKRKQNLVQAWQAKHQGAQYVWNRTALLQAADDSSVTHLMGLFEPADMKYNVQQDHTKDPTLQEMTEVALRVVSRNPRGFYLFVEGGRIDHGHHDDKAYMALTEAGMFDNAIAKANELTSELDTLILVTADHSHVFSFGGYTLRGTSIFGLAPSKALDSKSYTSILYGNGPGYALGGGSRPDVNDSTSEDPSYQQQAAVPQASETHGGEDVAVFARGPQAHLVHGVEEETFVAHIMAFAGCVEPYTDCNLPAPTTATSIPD
CD9(ECD)-ALP conjugate (human; bovine), sequence (chain, as listed by the source, chain 1 of 2): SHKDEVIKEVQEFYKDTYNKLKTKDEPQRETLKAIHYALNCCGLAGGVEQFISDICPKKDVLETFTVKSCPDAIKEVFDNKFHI
CD9(ECD)-ALP conjugate (human; bovine), sequence (P19111 20-506, chain 2 of 2): as the sequence (P19111 20-506, chain 2 of 2) above

Count value [1]: 8240 count
Count value [2]: 13300 count
Count value [3]: 26900 count
Count value [4]: 13000 count
Count value [5]: 71000 count
Count value [6]: 3520 count
Count value (av) [7]: 69800 count
Count value (av) [8]: 26400 count
Count value [9]: 912 count
Count value (av) [10]: 3900 count
Count value [11]: 3630 count
Count value [12]: 1580 count
Count value [13]: 11400 count
Count value [14]: 1470 count
Count value [15]: 8060 count
Count value (av) [16]: 216000 count
Count value [17]: 3800 count
Count value [18]: 6330 count
Count value (av) [19]: 1100 count
Count value [20]: 218000 count
Substance: anti-CD9 antibody (Clone: H19a)
